We go through 125 sequences from the supplement of paper PMC9112550, “Optimization of the antimicrobial peptide Bac7 by deep mutational scanning” (BMC Biology, 2022).

The subject of this data set is Escherichia coli TOP10. The data set is described as follows: shrunken log2 fold change of peptide-encoding DNA abundance (4.5 h post-induction vs induction); higher = less antimicrobial activity (less host growth inhibition). The following applies: time post-induction: 4.5 h; library: site-saturation at positions 5, 18, 19, 20.
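Note: peptides expressed intracellularly from a pBAD plasmid library in pooled LB shake-flask culture, induced with 0.3% L-arabinose, DNA abundance read by NGS, three biological replicates, DESeq2 with apeglm shrinkage.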

For the sequence RRIRFRPPRLPRPRPRPILGPRP, the “shrunken log2 fold change” value worked out at 0.0151.
The figure for RRIRIRPPRLPRPRPRPMLYPRP is -0.33; for RRIRRRPPRLPRPRPRPNDYPRP it is -0.407.
On to RRIRIRPPRLPRPRPRPYASPRP, for which the “shrunken log2 fold change” value is -0.206.
Take RRIRGRPPRLPRPRPRPHCWPRP: the “shrunken log2 fold change” value amounted to 0.69.
The figure for RRIRPRPPRLPRPRPRPMVKPRP is -0.154; for RRIRWRPPRLPRPRPRPHLQPRP it is 0.103.
For the sequence RRIRRRPPRLPRPRPRPQEAPRP, the “shrunken log2 fold change” value was found to be 0.0364.
The figure for RRIRSRPPRLPRPRPRPLCIPRP is -0.334; for RRIRQRPPRLPRPRPRPRYKPRP it is -0.278; for RRIRRRPPRLPRPRPRPTGDPRP it is 0.0418.
On to RRIRGRPPRLPRPRPRPQALPRP, for which the “shrunken log2 fold change” value was found to be 0.135.
The same measure for RRIRARPPRLPRPRPRPHNHPRP: -0.436; for RRIRWRPPRLPRPRPRPQILPRP: -0.164.
The same measure for RRIRPRPPRLPRPRPRPADNPRP: -0.428.
RRIRKRPPRLPRPRPRPRDFPRP: the “shrunken log2 fold change” value is 0.188.
The figure for RRIRIRPPRLPRPRPRPHIFPRP is -0.311; for RRIRNRPPRLPRPRPRPRELPRP it is 0.287; for RRIRIRPPRLPRPRPRPDHTPRP it is -0.25.
In the case of RRIRNRPPRLPRPRPRPHWAPRP, the “shrunken log2 fold change” value was determined as 0.13.
For the sequence RRIRIRPPRLPRPRPRPTIEPRP, the “shrunken log2 fold change” value was -0.44.
The figure for RRIRLRPPRLPRPRPRPRLTPRP is 0.143; for RRIRSRPPRLPRPRPRPNDCPRP it is -0.00188; for RRIRKRPPRLPRPRPRPLERPRP it is 0.529.
The same measure for RRIRHRPPRLPRPRPRPTWNPRP: -0.267.
Take RRIRYRPPRLPRPRPRPWTAPRP: the “shrunken log2 fold change” value is -0.283.
As for RRIRSRPPRLPRPRPRPYRVPRP, the “shrunken log2 fold change” value was -0.0218.
Consider RRIRERPPRLPRPRPRPYTSPRP, for which the “shrunken log2 fold change” value was -0.141.
The figure for RRIRFRPPRLPRPRPRPSHPPRP is -0.19.
With RRIRCRPPRLPRPRPRPWNHPRP, the “shrunken log2 fold change” value is -0.939.
On to RRIRSRPPRLPRPRPRPVDMPRP, for which the “shrunken log2 fold change” value worked out at 0.0294.
The figure for RRIRRRPPRLPRPRPRPAHPPRP is 0.769; for RRIRVRPPRLPRPRPRPDKPPRP it is 0.028; for RRIRMRPPRLPRPRPRPFYFPRP it is -0.569.
RRIRQRPPRLPRPRPRPFIQPRP: the “shrunken log2 fold change” value is -0.321.
The same measure for RRIRYRPPRLPRPRPRPYSLPRP: -0.335; for RRIRTRPPRLPRPRPRPMIHPRP: -0.609.
The same measure for RRIRYRPPRLPRPRPRPKMQPRP: -0.344; for RRIRVRPPRLPRPRPRPPQQPRP: 0.575; for RRIRLRPPRLPRPRPRPFFMPRP: -0.369.
The same measure for RRIRSRPPRLPRPRPRPGIKPRP: -0.0207; for RRIRQRPPRLPRPRPRPGVHPRP: 0.0118.
As to RRIRERPPRLPRPRPRPHDTPRP, the “shrunken log2 fold change” value was -0.332.
The figure for RRIRHRPPRLPRPRPRPTQPPRP is 0.306.
The same measure for RRIRARPPRLPRPRPRPFVRPRP: -0.0552; for RRIRWRPPRLPRPRPRPGNSPRP: -0.22.
For the sequence RRIRVRPPRLPRPRPRPLFNPRP, the “shrunken log2 fold change” value was -0.465.
With RRIRVRPPRLPRPRPRPNPVPRP, the “shrunken log2 fold change” value is -0.242.
The figure for RRIRGRPPRLPRPRPRPWACPRP is 0.216; for RRIRQRPPRLPRPRPRPVRWPRP it is 0.428.
Consider RRIRTRPPRLPRPRPRPMTCPRP, for which the “shrunken log2 fold change” value was -0.0817.
As to RRIRVRPPRLPRPRPRPMICPRP, the “shrunken log2 fold change” value was -0.0606.
In the case of RRIRKRPPRLPRPRPRPACLPRP, the “shrunken log2 fold change” value stood at 0.222.
The same measure for RRIRGRPPRLPRPRPRPIHRPRP: 0.0525; for RRIRFRPPRLPRPRPRPRHGPRP: 0.155.
As to RRIRNRPPRLPRPRPRPHYWPRP, the “shrunken log2 fold change” value was -0.388.
The figure for RRIRCRPPRLPRPRPRPMTNPRP is -0.434.
As for RRIRLRPPRLPRPRPRPDMCPRP, the “shrunken log2 fold change” value was -0.0164.
The figure for RRIRHRPPRLPRPRPRPPKDPRP is 0.105; for RRIRHRPPRLPRPRPRPVGTPRP it is 0.0773; for RRIRDRPPRLPRPRPRPNKRPRP it is -0.14.
Consider RRIRSRPPRLPRPRPRPGKGPRP, for which the “shrunken log2 fold change” value was -0.0961.
The same measure for RRIRQRPPRLPRPRPRPNVMPRP: -0.254.
The same measure for RRIRCRPPRLPRPRPRPSIQPRP: -0.655.
Regarding RRIRLRPPRLPRPRPRPIFDPRP, the “shrunken log2 fold change” value is -0.0489.
On to RRIRGRPPRLPRPRPRPIKPPRP, for which the “shrunken log2 fold change” value was -0.0362.
Regarding RRIRFRPPRLPRPRPRPFEHPRP, the “shrunken log2 fold change” value was -0.0558.
The same measure for RRIRDRPPRLPRPRPRPNMVPRP: 0.136.
On to RRIRSRPPRLPRPRPRPKVDPRP, for which the “shrunken log2 fold change” value amounted to 0.093.
The figure for RRIRCRPPRLPRPRPRPGHEPRP is 0.00505; for RRIRFRPPRLPRPRPRPCHQPRP it is -0.188; for RRIRYRPPRLPRPRPRPLANPRP it is -0.371.
The same measure for RRIRERPPRLPRPRPRPDDHPRP: -0.284.
On to RRIRPRPPRLPRPRPRPHPIPRP, for which the “shrunken log2 fold change” value was 0.0162.
For RRIRFRPPRLPRPRPRPPFNPRP, the “shrunken log2 fold change” value was -0.245.
RRIRWRPPRLPRPRPRPVHAPRP: the “shrunken log2 fold change” value was 0.109.
The figure for RRIRRRPPRLPRPRPRPYKWPRP is -0.138; for RRIRDRPPRLPRPRPRPFSEPRP it is -0.0447.
With RRIRDRPPRLPRPRPRPVTQPRP, the “shrunken log2 fold change” value is -0.0479.
In the case of RRIRMRPPRLPRPRPRPAKCPRP, the “shrunken log2 fold change” value was 0.147.
The figure for RRIRARPPRLPRPRPRPFIGPRP is -0.457.
For RRIRPRPPRLPRPRPRPNGRPRP, the “shrunken log2 fold change” value was -0.00968.
Regarding RRIRPRPPRLPRPRPRPQQEPRP, the “shrunken log2 fold change” value is 0.0468.
Turning to RRIRTRPPRLPRPRPRPMWCPRP, the “shrunken log2 fold change” value was -0.172.
The figure for RRIRKRPPRLPRPRPRPAGCPRP is 0.702; for RRIRHRPPRLPRPRPRPQDKPRP it is -0.355.
The figure for RRIRWRPPRLPRPRPRPMWVPRP is -0.0542; for RRIRDRPPRLPRPRPRPMTKPRP it is -0.0341; for RRIRRRPPRLPRPRPRPSLIPRP it is -0.118.
RRIRHRPPRLPRPRPRPNVKPRP: the “shrunken log2 fold change” value is -0.112.
The figure for RRIRNRPPRLPRPRPRPPTVPRP is 0.175; for RRIRDRPPRLPRPRPRPMAHPRP it is -0.00211.
For the sequence RRIRNRPPRLPRPRPRPWSIPRP, the “shrunken log2 fold change” value is -0.16.
Take RRIRQRPPRLPRPRPRPESIPRP: the “shrunken log2 fold change” value stood at 0.0598.
For RRIRNRPPRLPRPRPRPYPKPRP, the “shrunken log2 fold change” value worked out at 0.0245.
The figure for RRIRRRPPRLPRPRPRPRWFPRP is 0.524.
On to RRIRQRPPRLPRPRPRPPFKPRP, for which the “shrunken log2 fold change” value was -0.0455.
For RRIRMRPPRLPRPRPRPICLPRP, the “shrunken log2 fold change” value was -0.322.
The figure for RRIRLRPPRLPRPRPRPSKHPRP is -0.642.
The figure for RRIRIRPPRLPRPRPRPPGRPRP is 0.336; for RRIRKRPPRLPRPRPRPCPMPRP it is -0.15; for RRIRTRPPRLPRPRPRPTKWPRP it is -0.0752.
The same measure for RRIRMRPPRLPRPRPRPSSHPRP: 0.0506; for RRIRMRPPRLPRPRPRPWVYPRP: -0.0124.
RRIRGRPPRLPRPRPRPYVAPRP: the “shrunken log2 fold change” value amounted to 0.0436.
In the case of RRIRTRPPRLPRPRPRPIQVPRP, the “shrunken log2 fold change” value was -0.0152.
Consider RRIRNRPPRLPRPRPRPTRTPRP, for which the “shrunken log2 fold change” value stood at 0.211.
The figure for RRIRQRPPRLPRPRPRPQVSPRP is 0.301; for RRIRRRPPRLPRPRPRPVNSPRP it is -0.0287.
The same measure for RRIRRRPPRLPRPRPRPPEMPRP: 0.66.
The same measure for RRIRDRPPRLPRPRPRPFEAPRP: 0.277; for RRIRLRPPRLPRPRPRPRPHPRP: 0.364; for RRIRQRPPRLPRPRPRPHVRPRP: -0.00149.
With RRIRERPPRLPRPRPRPVVPPRP, the “shrunken log2 fold change” value is -0.158.
As to RRIRTRPPRLPRPRPRPVTGPRP, the “shrunken log2 fold change” value is -0.083.
In the case of RRIRPRPPRLPRPRPRPAIMPRP, the “shrunken log2 fold change” value was -0.00756.
As to RRIRNRPPRLPRPRPRPDCCPRP, the “shrunken log2 fold change” value was found to be 0.00539.
The same measure for RRIRGRPPRLPRPRPRPLSIPRP: 0.363.
Take RRIRVRPPRLPRPRPRPATRPRP: the “shrunken log2 fold change” value stood at 0.383.
As to RRIRARPPRLPRPRPRPRCIPRP, the “shrunken log2 fold change” value worked out at 0.459.
The same measure for RRIRNRPPRLPRPRPRPIPVPRP: 1.22.
The same measure for RRIRYRPPRLPRPRPRPMKLPRP: -0.58; for RRIRVRPPRLPRPRPRPCCRPRP: 0.0482.
The figure for RRIRWRPPRLPRPRPRPWSPPRP is -0.0542.
Consider RRIRDRPPRLPRPRPRPQPEPRP, for which the “shrunken log2 fold change” value amounted to 0.106.
